Data on 9 molecules can be found in EP4538285A1 (Chineo Medical Technology Co., Ltd., dated 2025).

First the molecules themselves.
B1: Seq No.2-RFc (PD-1 variant SEQ ID NO: 2 fused to rabbit IgG Fc) (Fc fusion)
chain: PGWFLDSPDRPWNPPTFSPALLVVTEGDNATFTCSFSNTSESFVLNWYRMSPSNQTDKLAAFPEDRSQPGQDCRFRVTQLPNGRDFHMSVVRARRNDSGTYLCGAISLSTPVWIKESLRAELRVTERRAEVPTAH
notes: signal peptide 1-20 left out; also called variant 1; not shown: rabbit IgG Fc (RFc) of vector pcDNA3.4-RFc
B2: Seq No.5-RFc (PD-1 variant SEQ ID NO: 5 fused to rabbit IgG Fc) (Fc fusion)
chain: B1 chain with R66F, S67R, Q68N, P69C, G70T
notes: Signal peptide 1-20 left out; also called variant 4; not shown: rabbit IgG Fc (RFc) of vector pcDNA3.4-RFc
B3: Seq No.4-RFc (PD-1 variant SEQ ID NO: 4 fused to rabbit IgG Fc) (Fc fusion)
chain: B1 chain with E64W, D65M, R66F, S67C, Q68F
notes: Signal peptide 1-20 left out; also called variant 3; not shown: rabbit IgG Fc (RFc) of vector pcDNA3.4-RFc
B4: Seq No.7-RFc (PD-1 variant SEQ ID NO: 7 fused to rabbit IgG Fc) (Fc fusion)
chain: B1 chain with S67I, Q68N, P69R, G70S
notes: Signal peptide 1-20 left out; also called variant 6; not shown: rabbit IgG Fc (RFc) of vector pcDNA3.4-RFc
B5: Seq No.3-RFc (PD-1 variant SEQ ID NO: 3 fused to rabbit IgG Fc) (Fc fusion)
chain: B1 chain with E64F, D65L, R66F, S67N, Q68L
notes: Signal peptide 1-20 left out; also called variant 2; not shown: rabbit IgG Fc (RFc) of vector pcDNA3.4-RFc
B6: Seq No.6-RFc (PD-1 variant SEQ ID NO: 6 fused to rabbit IgG Fc) (Fc fusion)
chain: B1 chain with R66F, S67F, Q68T, P69V, G70S
notes: Signal peptide 1-20 left out; also called variant 5; 56#-16; not shown: rabbit IgG Fc (RFc) of vector pcDNA3.4-RFc
B7: Camrelizumab (antibody, V domains shown)
VH: EVQLVESGGGLVQPGGSLRLSCAASGFTFSSYMMSWVRQAPGKGLEWVATISGGGANTYYPDSVKGRFTISRDNAKNSLYLQMNSLRAEDTAVYYCARQLYYFDYWGQGTTVTVSS
VL: DIQMTQSPSSLSASVGDRVTITCLASQTIGTWLTWYQQKPGKAPKLLIYTATSLADGVPSRFSGSGSGTDFTLTISSLQPEDFATYYCQQVYSIPWTFGGGTKVEIK
B8: Sintilimab (antibody, V domains shown)
VH: QVQLVQSGAEVKKPGSSVKVSCKASGGTFSSYAISWVRQAPGQGLEWMGLIIPMFDTAGYAQKFQGRVAITVDESTSTAYMELSSLRSEDTAVYYCARAEHSSTGTFDYWGQGTLVTVSS
VL: DIQMTQSPSSVSASVGDRVTITCRASQGISSWLAWYQQKPGKAPKLLISAASSLQSGVPSRFSGSGSGTDFTLTISSLQPEDFATYYCQQANHLPFTFGGGTKVEIK
B9: Toripalimab (antibody, V domains shown)
VH: QGQLVQSGAEVKKPGASVKVSCKASGYTFTDYEMHWVRQAPIHGLEWIGVIESETGGTAYNQKFKGRVTITADKSTSTAYMELSSLRSEDTAVYYCAREGITTVATTYYWYFDVWGQGTTVTVSS
VL: DVVMTQSPLSLPVTLGQPASISCRSSQSIVHSNGNTYLEWYLQKPGQSPQLLIYKVSNRFSGVPDRFSGSGSGTDFTLKISRVEAEDVGVYYCFQGSHVPLTFGQGTKLEIKR

Where a chain is given by its changes, count along the chain named.

For the first test, the target named is B9. The experiment in a line: SPR, Biacore T200.
The term Kd denotes the equilibrium constant for the complex coming apart. Read a high Kd as lower affinity. With B1, the equilibrium dissociation constant (Kd) stood at 395 pM.

The target in a further test is T1, Tilelizumab.
T1 construct: Biotin-labelled in flow cytometry; also called Tevimbra; Tislelizumab
The experiment in a line: SPR, Biacore T200; PD1-RFc mobile phase, antibody stationary phase. For orientation: Surface plasmon resonance follows binding to a sensor surface in real time, without labels.
By koff is commonly meant the rate constant with which the complex falls apart. Low readings indicate slow dissociation, high ones fast dissociation. What is called kon is the second-order rate constant of association. Low values mean slow association, high ones fast association. B2 showed a Kd of 567 pM, a koff of 0.0003 s⁻¹ and a kon of 530000 M⁻¹ s⁻¹.

As for B3, binding was characterised by a dissociation constant (Kd) of 2940 pM, the koff is 0.00203 s⁻¹ and the kon came to 691000 M⁻¹ s⁻¹.

With B1, the Kd came out at 85 pM, the off-rate constant (koff) stood at 0.000174 s⁻¹ and the kon is 2.05e+06 M⁻¹ s⁻¹.

B4 displayed a Kd of 49.2 pM, a koff of 0.000109 s⁻¹ and a kon of 2.21e+06 M⁻¹ s⁻¹.

Turning to B5, the Kd turned out to be 1780 pM, the koff turned out to be 0.00105 s⁻¹ and the kon was found to be 588000 M⁻¹ s⁻¹.

Turning to B6, the Kd amounted to 315 pM, the koff came out at 0.000836 s⁻¹ and the kon worked out at 2.66e+06 M⁻¹ s⁻¹.

A further test concerns the target T2, Seq No.1-RFc (wild-type PD-1 fused to rabbit IgG Fc) (human; rabbit, UniProt Q15116 21-155).
T2 construct: also called PD1-RFc; not shown: rabbit IgG Fc (RFc) of vector pcDNA3.4-RFc
Described as above.
As for B7, the Kd was determined as 229 pM, the koff was found to be 0.000389 s⁻¹ and the kon was determined as 1.7e+06 M⁻¹ s⁻¹.

With B8, binding was put at a Kd of 1.41 pM, the koff amounted to 5.11e-06 s⁻¹ and the kon was found to be 3.62e+06 M⁻¹ s⁻¹.

For B9, binding was characterised by a dissociation constant (Kd) of 178 pM, the koff came out at 0.00115 s⁻¹ and the on-rate (kon) was 6.47e+06 M⁻¹ s⁻¹.
